We go through four compounds from patent US20260116943A1, “PROCESSES FOR SYNTHESIZING GLUCAGON-LIKE-PEPTIDE 2 (GLP-2) ANALOGUES” (Zealand Pharma A/S, priority 2021, published 2026).

For data set [1] the following is noted: cited from earlier work.
The nature of data set [2]: precipitation of ZP1848 in solution with phosphate and NaCl, same conditions as on the column under RPC1. The format is physicochemical. On the procedure: Additionally, ZP1848 precipitates at neutral pH in solutions containing NaCl, phosphate, NaOH and high ionic strength.
Below in Table 4.1 various formulations of ZP1848 were prepared in 100 mM NaCl and 45 mM phosphate (the buffers are described in Example 1.12) at different pH and/or concentrations in order to reflect the same conditions in solution as present in the column under RPC1.
Additionally, it was shown that ZP1848 precipitates even at low concentrations at pH 7.5 (0.2 and 0.5 mg/mL).

Where two headings read alike, the source gives them in different places.

What is called half-life is the time needed for the level to fall by half in the phase considered.

In the case of “Hy-His-Ala-Asp-Gly-Ser-Phe-Ser-Asp-Glu-Met-Asn-Thr-Ile-Leu-Asp-Asn-Leu-Ala-Ala-Arg-Asp-Phe-Ile-Asn-Trp-Leu-Ile-Gln-Thr-Lys-Ile-Thr-Asp-OH [GLP-2 [1-33]]”, the half-life entry in data set [1] (in humans) is listed as “around 7 minutes”.

“H-HGEGTFSSELATILDALAARDFIAWLIATKITDKKKKKK-NH2 [ZP1848]”: in data set [2] (neutral pH, solutions containing NaCl, phosphate, NaOH and high ionic strength), the precipitation in solution entry is listed as “precipitates”. Besides, the “precipitation at low concentrations” value in data set [2] (pH 7.5, 0.2 and 0.5 mg/mL) was “precipitates”. For the same compound, in data set [2] (phosphate buffer/phosphoric acid, neutral pH), the “precipitation in peptide product solution” value is “precipitates”. The “time of precipitation after sample preparation” value in data set [2] (same conditions in solution as on the column during RPC1) is on record as “within minutes”. Consider “GLP-2 [3-33]: truncated GLP-2 [3-33] (DGSFSDEMNTILDNLAARDFINWLIQTKITD; Glucagon-like peptide 2; UniProt P01275 148-178, looked up, fragment)”, for which the half-life in data set [1] (in humans) was roughly 27 min. `CC[C@H](C)[C@H](NC(=O)[C@H](Cc1ccccc1)NC(=O)[C@H](CC(=O)O)NC(=O)[C@H](CCCNC(=N)N)NC(=O)[C@H](C)NC(=O)[C@H](C)NC(=O)[C@H](CC(C)C)NC(=O)[C@H](CC(N)=O)NC(=O)[C@H](CC(=O)O)NC(=O)[C@H](CC(C)C)NC(=O)[C@@H](NC(=O)[C@@H](NC(=O)[C@H](CC(N)=O)NC(=O)[C@H](CCSC)NC(=O)[C@H](CCC(=O)O)NC(=O)[C@H](CC(=O)O)NC(=O)[C@H](CO)NC(=O)[C@H](Cc1ccccc1)NC(=O)[C@H](CO)NC(=O)CNC(=O)[C@H](CC(=O)O)NC(=O)CNC(=O)[C@@H](N)Cc1c[nH]cn1)[C@@H](C)O)[C@@H](C)CC)C(=O)N[C@@H](CC(N)=O)C(=O)N[C@@H](Cc1c[nH]c2ccccc12)C(=O)N[C@@H](CC(C)C)C(=O)N[C@H](C(=O)N[C@@H](CCC(N)=O)C(=O)N[C@H](C(=O)N[C@@H](CCCCN)C(=O)N[C@H](C(=O)N[C@H](C(=O)N[C@@H](CC(=O)O)C(=O)O)[C@@H](C)O)[C@@H](C)CC)[C@@H](C)O)[C@@H](C)CC` [teduglutide, [hGly2] GLP-2]: the half-life entry in data set [1] (Gly substitution at position 2, compared with native GLP-2) was “about two”.
